Changes are numbered by the printed parent chain.
B1: anti-CD137 antibody D6 (antibody, V domains shown)
VH: QMQLVQSGAEVKKPGASVKVSCKASGYTFTGYYMHWVRQAPGQGLEWMGWINPNSGGTNYAQKFQGRVTITRDTSASTAYMELSSLRSEDTAVYYCAREGEAVGLDLDYWGQGTLVTVSS
VL: SYELTQPPSVSVAPGKTARITCGGNNIGSKSVHWYQQKPGQAPVLVIYYDSDRPSGIPERFSGSNSGNTATLTISRVEAGDEADYYCQVWDSSSVVFGGGTQLTVL
notes: Fully human antibody, captured through anti-human Fc in SPR and detected with anti-human Lambda in ELISA
B2: anti-CD137 antibody MB3 (antibody, V domains shown)
VH: B1 VH with T28Q, F29M, T30R
VL: B1 VL
notes: Variant of D6 with the same light chain variable domain
B3: anti-CD137 antibody MSH1 (antibody, V domains shown)
VH: B1 VH with T28N, T30G, I51V, N54H, V103W, Y109L
VL: B1 VL
notes: as for B2
B4: anti-CD137 antibody MSA11 (antibody, V domains shown)
VH: B1 VH with T28S, I51V, N54K, E101W, V103R, G104R, L105I, Y109E
VL: B1 VL
notes: as for B2
B5: anti-CD137 antibody MC8 (antibody, V domains shown)
VH: B1 VH with T28M, F29P, T30D, N54R, S55T, E101A, V103F, G104R, D106E, Y109A
VL: B1 VL
notes: as for B2
B6: anti-CD137 antibody MD4 (antibody, V domains shown)
VH: B1 VH with T28N, F29W, N54M, S55A, E101W, V103R, L105V, D106E, Y109M
VL: B1 VL
notes: as for B2
B7: anti-CD137 antibody MSC8 (antibody, V domains shown)
VH: B1 VH with T28N, T30G, I51V, N54K
VL: B1 VL
notes: as for B2
B8: anti-CD137 antibody MSB7 (antibody, V domains shown)
VH: B1 VH with T28S, T30S, I51V, N54M, E101M, V103M, G104R, D106E, Y109K
VL: B1 VL
notes: as for B2
B9: anti-CD137 antibody MB12 (antibody, V domains shown)
VH: B1 VH with T28S, F29L, T30E
VL: B1 VL
notes: as for B2

How the values were obtained:
[1] = molecular target: T1, Recombinant human CD137/His (human, UniProt Q07011 24-186); assay: SPR (Biacore), antibody captured on anti-human Fc, human CD137/His as analyte, 1:1 fit
T1 construct: Analyte of the SPR assay; also called 4-1BB; TNFRSF9; not shown: His tag
Description: This example illustrates binding affinities of exemplary anti-CD137 antibodies disclosed herein. Affinities were determined using surface plasmon resonance (Biacore). Briefly, anti-human Fc antibody (GE, BR-1008-39) was immobilized on CM5 sensor chip to approximately 1000 RU using standard NHS/EDC coupling methodology. Antibodies (about 10 μg/ml) were captured for 60 s at a flow rate 10 μl/min Recombinant human CD137/His was serially diluted in running buffer (HBS-EP). All measurements were conducted with a flow rate of 30 μL/min Surfaces were regenerated with 3M MgCl₂ for 60 s. A 1:1 (Langmuir) binding model was used to fit the data.

mouse CD137/Fc = molecular target: T2, mouse CD137/Fc (mouse, UniProt P20334 24-187); assay: ELISA, plate coated with mouse CD137/Fc at 2 µg/mL, detection with HRP anti-human Lambda, OD 450 nm
T2 construct: Coated on the ELISA plate at 2 µg/mL; also called murine CD137; not shown: Fc part
T2 sequence (looked up): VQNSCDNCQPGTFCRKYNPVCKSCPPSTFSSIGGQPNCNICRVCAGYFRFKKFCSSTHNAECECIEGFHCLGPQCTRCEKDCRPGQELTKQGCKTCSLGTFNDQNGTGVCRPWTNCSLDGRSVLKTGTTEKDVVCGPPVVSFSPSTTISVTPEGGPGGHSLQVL
Description: A Maxisorp plate was coated with recombinant human CD137/Fc or mouse CD137/Fc at 2 μg/mL at 4° C., overnight. The plate was blocked for 1 hour at room temperature, washed 3 times with PBS-Tween (PBST), then anti-CD137 antibodies (˜1 μg/mL) diluted in casein were added and incubated for 30 min with shaking. The plate was washed 3 times with PBST, horseradish peroxidase (HRP)-conjugated mouse anti-human Lambda (1:1000 in casein) was added, then 3,3′,5,5′-Tetramethylbenzidine (TMB) was added as substrate and developed about 5 min. 2M H₂SO₄ was used to stop the reaction and the OD was read at 450 nm.

Binder | Kd [1] [nM] | koff [1] [s⁻¹] | kon [1] [M⁻¹ s⁻¹] | binding result (mouse CD137/Fc) | Ka [1] [M⁻¹]
B1 | 203 | 0.0814 | 401000 | no binding | –
B2 | – | 0.0678 | 296000 | no binding | –
B3 | – | 0.0324 | 369000 | – | 1.14e+07
B4 | – | 0.00631 | 135000 | – | 2.13e+07
B5 | – | 0.00628 | 208000 | – | 3.32e+07
B6 | 88.9 | 0.0512 | 576000 | – | 1.12e+07
B7 | – | 0.0615 | 282000 | no binding | –
B8 | – | 0.00756 | 456000 | – | 6.03e+07
B9 | – | 0.0669 | 433000 | no binding | 6.47e+06
